How the values were obtained:
Experiment in all cases: AUC
[1] = target: Dscam1 3C.31.8 fragment containing the N-terminal 8 Ig domains (Drosophila melanogaster)
[2] = target: Dscam1 4C.31.8 fragment containing the N-terminal 8 Ig domains (Drosophila melanogaster)
[3] = target: Dscam1 10C.27.25 fragment containing the N-terminal 8 Ig domains (Drosophila melanogaster)
[4] = target: Dscam1 11C.27.25 fragment containing the N-terminal 8 Ig domains (Drosophila melanogaster)
[5] = target: Dscam1^3.31.8 fragment containing the N-terminal 8 Ig domains (Drosophila melanogaster)
[6] = target: Dscam1^10.27.25 fragment containing the N-terminal 8 Ig domains (Drosophila melanogaster)

“Dscam1 3C.31.8 fragment containing the N-terminal 8 Ig domains (domain or fragment)” showed a Kd [1] greater than 500 µM and a Kd [2] of 0.99 µM.

“Dscam1 4C.31.8 fragment containing the N-terminal 8 Ig domains (domain or fragment)” was tested, and the Kd [2] was greater than 500 µM.

Substance “Dscam1 10C.27.25 fragment containing the N-terminal 8 Ig domains (domain or fragment)” has a Kd [3] greater than 500 µM and a Kd [4] of 4.6 µM.

“Dscam1 11C.27.25 fragment containing the N-terminal 8 Ig domains (domain or fragment)” showed a Kd [4] greater than 500 µM.

“Dscam1^3.31.8 fragment containing the N-terminal 8 Ig domains (domain or fragment)” was tested, and the Kd [5] was 2.12 µM and the stoichiometry N [5] was 2.

“Dscam1^10.27.25 fragment containing the N-terminal 8 Ig domains (domain or fragment)” gave a Kd [6] of 1 µM and a stoichiometry N [6] of 2.
